Numbering of substitutions follows the chain as printed.
T1: α-fructosyl-valyl-histidyl-leucyl-threonyl-prolyl-glutamyl-glutamyl-lysine (not fully specified)
T1 chain: VHLTPEEK

B1: PnFX-62D/63H/106K/110L/113K/351S (protein)
chain: MAPSRANTSVIVVGGGGTIGSSTALHLVRSGYTPSNVTVLDAYPIPSSQSAGNDLNKIMGVDHRNPVDLQLALEARQMWNEDELFKKFFHNTGRLDCAHGEKDIAKLKSLYQKLVDAGLDATNEWLDSEDEILKRMPLLSRDQIKGWKAIFSKDGGWLAAAKAINAVGEYLRDQGVRFGFYGAGSFKAPLLAEGVCIGVETVDGTRYYADKVVLAAGAWSPTLVELHEQCVSKAWVYGHIQLTPEEAARYKNSPVVYNGDVGFFFEPNEHGVIKVCDEFPGFTRFKMHQPFGAKAPKRISVPRSHAKHPTDTIPDASDVSIRRAIATFMPQFKNKKMFNQAMCWCTDTADSALLICEHPEWKNFVLATGDSGHSFKLLPNIGKHVVELLEGTLADDLAHAWRWRPGSGDALKSRRSAPAKDLADMPGWNHDKPRANL
B2: PnFX-62D/63H/106K/110L/113K/351S-64S (protein)
chain: B1 chain with R64S
B3: CFP-T7-H38-V (protein)
chain: MTSNRADTRVIVVGGGGTIGSSTALHLVRSGYAPANITVLDTFEIPSAQSAGHDLNKIMGIDHVNKVNLQMSLEARQMWKEDELFQPFFHNTGRMDCEHTPKGIEKLKKLYQKLHDAGAGLEKTHAWLDNEDEILSKMPLLQRDQIQGWKAIWSQDGGWLAAAKAINAIGQFLKERGVKFGFGGAGSFKQPLFDDEGTTCIGVETADGTKYYADKVVLAAGAWSPTLVDLEDQCCSKAWVYAHIQLTPEEAAEYKGVPVVYNGEFGFFFEPDEFGVIKVCDEFPGFSRFKEHQPYGAPSPKRISVPRSHAKHPTDTYPDASEVSIKKAIATFLPRFQDKELFNRALCWCTDTADSTLLMCEHPKWKNFILATGDSGHSFKILPNVGKYVVELIEGRLPEEMAYQWRWRPGGDALKSRRAAPPKDLADMPGWKHDPKL
B4: CFP-T7-H38-M (protein)
chain: B3 chain with V64M
B5: CFP-T7-H38-A (protein)
chain: B3 chain with V64A
B6: CFP-T7-H38-L (protein)
chain: B3 chain with V64L
B7: CFP-T7-H38-GF (protein)
chain: B3 chain with V64G, L110F
B8: CFP-T7-H38-G (protein)
chain: B3 chain with V64G
B9: CFP-T7-H37 (protein)
chain: B3 chain with V64R
B10: CFP-T7-H38-S (protein)
chain: B3 chain with V64S
B11: CFP-T7-H38-I (protein)
chain: B3 chain with V64I
B12: CFP-T7-H38-T (protein)
chain: B3 chain with V64T
B13: CFP-T7-H38-GY (protein)
chain: B3 chain with V64G, L110Y
B14: CFP-T7-H38-GYS (protein)
chain: B3 chain with V64G, H99S, L110Y
B15: CFP-T7-H38-GH (protein)
chain: B3 chain with V64G, L110H
B16: CcFX-62D/63H/102K/106K (protein)
chain: MAPSRANTSVIVVGGGGTIGSSTALHLVRSGYTPSNITVLDTYPIPSAQSAGNDLNKIMGIDHRNKVDLQLSLEARQMWREDDLFKEYFHNTGRLDCAHGEKGLAKLRQAYQALLDANAGLEETTEWLDSEDEILKKMPLLDREQIKGWKAVYSQDGGWLAAAKAINAIGEYLRAQGVKFGFGGAGSFKQPLLAEGVCIGVETVDGTRYYADKVVLAAGAWSPVLVDLEDQCVSKAWVYAHIQLTPEEAAEYKNVPVVYNGDVGFFFEPDEHGVIKVCDEFPGFTRFKQHQPYGAKAPKRISVPRSAAKHPTDTYPDASEKSIRKAIATFLPKFTEKELFNRHLCWCTDTADAALLMCEHPEWKNFVLATGDSGHTFKLLPNIGKHVVELLEGTLAEDLAHAWRWRPGTGDALKSRRAAPAKDLADMPGWKHDDVVKSKL
B17: CcFX-62D/63H/102K/106K-64T (protein)
chain: B16 chain with R64T
B18: CcFX-62D/63H/102K/106K-64L (protein)
chain: B16 chain with R64L
B19: NvFX-62D/63H/106K/110L (protein)
chain: MTTPRKETTVLIIGGGGTIGSSTALHLLRAGYTPSNITVLDTYPIPSAQSAGNDLNKIMGIDHRNKVDLQLSLEARDMWRNDALFRPFFHNTGRLDCESSAEGVEKLRRLYQKLVEAGVGLEETHEWLDSEEAILEKAPLLQREEIEGWKAIWSEEGGWLAAAKAINAIGEELQRQGVRFGFGGAGSFKRPLFADDGTTCIGVETVDGTQYHADKVVLAAGAWSPALVDLEEQCCSKAWVYAHMQLTPEEAAVYKGCPVVYHGDVGFFFEPNENGVIKVCDEFPGFTRFKQHQPYGAPAPKPVSVPRSHAKHPTDTYPDASEESIKRAVSTFLPRFKDKPLFNRALCWCTDTADSALLICEHPRWKNFILATGDSGHSFKLLPIIGKHVVELVEGRLADDLAEAWRWRPGQGDARKSIRAAPAKDLADMPGWKHDQDSESR
B20: NvFX-62D/63H/106K/110L-64T (protein)
chain: B19 chain with R64T
B21: NvFX-62D/63H/106K/110L-64M (protein)
chain: B19 chain with R64M
B22: NvFX-62D/63H/106K/110L-64S (protein)
chain: B19 chain with R64S
B23: CFP-DH2 (protein)
chain: MTSNRADTRVIVVGGGGTIGSSTALHLVRSGYAPANITVLDTFPIPSAQSAGHDLNKIMGIDHRNKVNLQMSLEARQMWKEDELFQPFFHNTGRMDCEHTPKGIEKLKKLYQKLHDAGAGLEKTHAWLDNEDAILSKMPLLQRDQIQGWKAIWSQDGGWLAAAKAINAIGQFLKERGVKFGFGGAGSFKQPLFDDEGTTCIGVETADGTKYYADKVVLAAGAWSPTLVDLEDQCCSKAWVYAHIQLTPEEAAKYKGCPVVYHGEFGFFFEPDEFGVIKVCDEFPGFSRFKEHQPYGAPSPKRISVPRSHAKHPTDTYPDASEVSIKKAIATFLPRFKDKPLFNRALCWCTDTADSTLLMCEHPKWKNFILATGDSGHSFKILPNVGKYVVELIEGRLPEEMAYQWRWRPGGDALKSRRAAPPKDLADMPGWKHD
B24: CFP-DH3 (protein)
chain: B23 chain with R64G

Target: T1, α-fructosyl-valyl-histidyl-leucyl-threon …

In order of rising Specific activity (mU/mg), 10 µM αF8P:
1. B19  0.3 mU/mg
2. B22  0.37 mU/mg
3. B20  0.38 mU/mg
4. B21  0.42 mU/mg
5. B16  1.3 mU/mg
6. B17  1.5 mU/mg
7. B1  2 mU/mg
8. B18  2 mU/mg
9. B2  2.2 mU/mg
10. B9  44.4 mU/mg
11. B11  78.7 mU/mg
12. B12  78.7 mU/mg
13. B6  84.3 mU/mg
14. B4  84.4 mU/mg
15. B3  86 mU/mg
16. B10  89.7 mU/mg
17. B8  95.9 mU/mg
18. B15  143 mU/mg
19. B7  145 mU/mg
20. B13  174 mU/mg
21. B14  196 mU/mg

In order of rising Specific activity (U/mg), 1 mM αF8P:
1. B23  2.8 U/mg
2. B5  3.26 U/mg
3. B9  4.18 U/mg
4. B24  4.9 U/mg
5. B8  6.33 U/mg

For B8, the “fold improvement of specific activity on αF8P against CFP-T7-H37” value was “by 1.51 to 1.75 times”.

B24 was tested, and the “fold improvement of specific activity on αF8P against CFP-DH2” value was “by 1.51 to 1.75 times”.
